{
  "source": "patent US10874712B2",
  "about": "“Methods, compounds and compositions for modulating blood brain barrier integrity and re-myelination” (University Health Network, priority 2015, dated 2020)",
  "molecules": {"B1": {"name": "sRGMc: truncated form of RGMc with the GPI anchor sequence removed, released as a soluble protein (SEQ ID NOs: 1 and 3) (protein, listed as Homo sapiens)", "chain": "CKILRCNAEYVSSTLSLRGGGSSGALRGGGGGGRGGGVGSGGLCRALRSYALCTRRTARTCRGDLAFHSAVHGIEDLMIQHNCSRQGPTAPPPPRGPALPGAGSGLPAPDPCDYEGRFSRLHGRPPGFLHCASFGDPHVRSFHHHFHTCRVQGAWPLLDNDFLFVQATSSPMALGANATATRKLTIIFKNMQECIDQKVYQAEVDNLPVAFEDGSINGGDRPGGSSLSIQTANPGNHVEIQAAYIGTTIIIRQTAGQLSFSIKVAEDVAMAFSAEQDLQLCVGGCPPSQRLSRSERNRRGAITIDTARRLCKEGLPVEDAYFHSCVFDVLISGDPNFTVAAQAALEDARAFLPDLEKLH"}},
  "key": {"[1]": {"system": "optic nerves of adult mice", "assay": "Optic nerve crush and regeneration model (GAP43 staining)", "assay_type": "in vivo, mouse", "settings": "1 μg/ml intraocularly at 3 and 10 days after injury; day 21; vs control proteins", "description": "Optic nerve crush experiments were performed on animals and recovery assessed by staining for axonal fibres. The optic nerves of adult mice were crushed using fine self-closing forceps. sRGMc (1 μg/ml) or control solution was injected intraocularly at 3 and 10 days after injury. Animals were sacrificed at day 21 and optic nerves were dissected and fixed in 4% PFA. The optic nerves were sectioned longitudinally at 14 microns and stained with GAP43 antibody to stain newly regenerating axons."}, "[2]": {"system": "splenocytes and lymph node cells of EAE-induced mice", "assay": "Flow cytometry of splenocytes and lymph node cells of treated EAE mice", "assay_type": "in vivo, mouse", "description": "Mice were euthanized at day 10 post-induction of EAE. Freshly isolated spleens and draining caudal lymph nodes (LN) were pressed using a syringe plunger through a 70 μm cell strainers and washed twice using 2 mL of 2% FBS in complete RPMI-1640 medium (Invitrogen) supplemented with […], L-glutamine, p/s, and non-essential amino acids. Single-cell suspensions were lysed with 7 mL of red blood cell (RBC) lysing buffer (Life Technologies) and centrifuged at 700 rcf for 5 mins. After washing three times with 2% RPMI-1640 medium, cells were counted and cultured as described below or were subjected to cell surface staining.\nThe expression of cell-surface markers and cytokine expression on splenocytes and LN cells were characterized by flow cytometry. For analysis of naïve cells, 5×10^5 RBC depleted splenocytes and LN cells were plated in 96-well V-bottom plates (Starstedt) and blocked with 50 μl of 1% mouse IgG in 2% FBS PBS supplemented with azide (PFN3) for 20 min at 4° C. Cells were then stained with the following primary conjugated antibodies from BioLegend for 30 min on ice: CD5 (53-7.3), CD3 (145-2C11), CD4 (GK1.5), CD8 (53-6.7), CD19 (6D5), CD11b (M1/70), CD11c (N418), CD80 (16-10A1), CD86 (GL-1), CD44 (IM7), MHCII (M5/114.15.12), CD62L (MEL-14), ICAM-1/CD54 (3E2), IL-17A (TC11-18H10.41), IFN-γ (XMG1.2). All antibodies were re-suspended in PFN3. When required, cells were washed twice with 100 μl of PFN3 and stained with secondary SA-APC, SA-APC-Cy7, SA-PeCy7, or SA-Percp-Cy5.5 for 30 min on ice. Cells were then washed twice with PFN3 and re-suspended in a PFN3 solution containing propidium iodide (PI) before proceeding to FACS analysis.\nTo examine intracellular cytokine production, 0.5×10^6 RBC-depleted splenocytes and LN cells were plated on 96-well flat bottom plates (BD Biosciences) in 10% FBS in complete RPMI-1640 in the presence of 0.5 μg/mL phorbol 12-myrisate 13-acetate (PMA), 0.5 μg/mL Ionomycin, and Golgistop (BD Biosciences) for 4 h. Cells were subsequently washed in PBS and stained with Near-Infrared Live Dead (Life Technologies) as described in the manufacturer's protocol. Cells were then washed twice in PFN3 and stained for cell surface markers as described previously. Cells were then fixed with 100 μl of Cytofix/Cytoperm solution as per manufacturer's protocol. For intracellular staining, cells were then stained with anti-IL-17A, and anti-IFN-γ for 30 min on ice, washed twice, and re-suspended in PFN3 before proceeding to FACS acquisition. Nonspecific background staining was determined by using fluorochrome-matched isotype antibodies and fluorescence minus one control. […] For each experiment, at least 100,000 live events were acquired and analyzed using Flowjo software (Tree Star Inc.)."}},
  "data": [
    {"molecule": "B1", "values": [
      {"measurement": "regeneration of axonal fibres at the site of injury (GAP43)", "setting": "[1]", "value": "promote the regeneration of axonal fibres"},
      {"measurement": "expression profile of IL-17 and IFN-γ secreted by CD4+ T cells", "setting": "[2]; PMA and ionomycin stimulated, EAE mice day 10", "value": "no effect"},
      {"measurement": "expression of adhesion markers (ICAM-1 and CD62L) on CD4+ and CD8+ T cells and B cells", "setting": "[2]; naive splenocytes and lymph node cells, vs vehicle", "value": "does not affect"},
      {"measurement": "distribution of effector cells (CD3+, CD8+, CD4+ T cells)", "setting": "[2]; splenocytes day 10, vs vehicle", "value": "does not alter"},
      {"measurement": "distributions and activation of dendritic cells (CD11c+) and B cells (MHC II, CD80+/CD86+)", "setting": "[2]; splenocytes day 10, vs vehicle", "value": "unaltered"}
    ]}
  ]
}
